Kd, koff and kon data for 18 molecules are collected here from patent US20220275067A1 (PROTHENA BIOSCIENCES, published 2022).

To fix the notation:
B1: hu9F5VHv9/hu9F5VLv8 (antibody, V domains shown)
VH: EVQLVQSGAEVKKPGATVKISCKASGFNIKDDYMNWVQQRPGKGLEWIGWIDPENGDTEYASKFQGRATMTADTSTNTAYMELSSLRSEDTAVYYCTTSNGWGQGTLVTVSS
VL: DIVMTQSPFSLPVTPGESASISCRSSKSLLHSNGITYLYWYLQKPGQSPQLLIYQMSNLASGVPNRFSSSGSGTDFTLKISRVEAEDVGVYYCAQNLELPLTFGQGTKLEIK
B2: hu9F5VHv9/hu9F5VLv8_DIM2 (antibody, V domains shown)
VH: EVQLVQSGAEVKKPGATVKISCKASGFNIKDDYMNWVQQRPGKGLEWIGWIDPENGDTEYASKFQGRATMTADTSTNTAYMELSSLRSEDTAVYYCTTSNGWGQGTLVTVSS
VL: DIQMTQSPFSLPVTPGESASISCRSSKSLSHSNGITYLYWYQQKPGQSPQLLIYQGSNRASGVPNRFSSSGSGTDFTLKISRVEAEDVGVYYCAQNIELPLTFGQGTKLEIK
B3: hu9F5VHv9/hu9F5VLv8_DIM15 (antibody, V domains shown)
VH: EVQLVQSGAEVKKPGATVKISCKASGFNIKDDYMNWVQQRPGKGLEWIGWIDPENGDTEYASKFQGRATMTADTSTNTAYMELSSLRSEDTAVYYCTTSNGWGQGTLVTVSS
VL: DIQMTQSPFSLPVTPGESASISCRSSKSLGHSNGITYLYWYGQKPGQSPQLLIYQGSNTASGVPNRFSSSGSGTDFTLKISRVEAEDVGVYYCAQNGELPLTFGQGTKLEIK
B4: hu9F5VHv9/hu9F5VLv8_DIM10 (antibody, V domains shown)
VH: EVQLVQSGAEVKKPGATVKISCKASGFNIKDDYMNWVQQRPGKGLEWIGWIDPENGDTEYASKFQGRATMTADTSTNTAYMELSSLRSEDTAVYYCTTSNGWGQGTLVTVSS
VL: DIQMTQSPFSLPVTPGESASISCRSSKSLSHSNGITYLYWYQQKPGQSPQLLIYQKSNGASGVPNRFSSSGSGTDFTLKISRVEAEDVGVYYCAQNIELPLTFGQGTKLEIK
B5: hu9F5VHv9/hu9F5VLv8_DIM11 (antibody, V domains shown)
VH: EVQLVQSGAEVKKPGATVKISCKASGFNIKDDYMNWVQQRPGKGLEWIGWIDPENGDTEYASKFQGRATMTADTSTNTAYMELSSLRSEDTAVYYCTTSNGWGQGTLVTVSS
VL: DIQMTQSPFSLPVTPGESASISCRSSKSLGHSNGITYLYWYGQKPGQSPQLLIYQGSNRASGVPNRFSSSGSGTDFTLKISRVEAEDVGVYYCAQNIELPLTFGQGTKLEIK
B6: hu9F5VHv9/hu9F5VLv8_DIM3 (antibody, V domains shown)
VH: EVQLVQSGAEVKKPGATVKISCKASGFNIKDDYMNWVQQRPGKGLEWIGWIDPENGDTEYASKFQGRATMTADTSTNTAYMELSSLRSEDTAVYYCTTSNGWGQGTLVTVSS
VL: DIQMTQSPFSLPVTPGESASISCRSSKSLSHSNGITYLYWYQQKPGQSPQLLIYQGSNTASGVPNRFSSSGSGTDFTLKISRVEAEDVGVYYCAQNIELPLTFGQGTKLEIK
B7: hu9F5VHv9/hu9F5VLv8_DIM5 (antibody, V domains shown)
VH: EVQLVQSGAEVKKPGATVKISCKASGFNIKDDYMNWVQQRPGKGLEWIGWIDPENGDTEYASKFQGRATMTADTSTNTAYMELSSLRSEDTAVYYCTTSNGWGQGTLVTVSS
VL: DIQMTQSPFSLPVTPGESASISCRSSKSLGHSNGITYLYWYQQKPGQSPQLLIYQGSNRASGVPNRFSSSGSGTDFTLKISRVEAEDVGVYYCAQNIELPLTFGQGTKLEIK
B8: hu9F5VHv9/hu9F5VLv8_DIM14 (antibody, V domains shown)
VH: EVQLVQSGAEVKKPGATVKISCKASGFNIKDDYMNWVQQRPGKGLEWIGWIDPENGDTEYASKFQGRATMTADTSTNTAYMELSSLRSEDTAVYYCTTSNGWGQGTLVTVSS
VL: DIQMTQSPFSLPVTPGESASISCRSSKSLGHSNGITYLYWYGQKPGQSPQLLIYQGSNTASGVPNRFSSSGSGTDFTLKISRVEAEDVGVYYCAQNIELPLTFGQGTKLEIK
B9: hu9F5VHv9/hu9F5VLv8_DIM13 (antibody, V domains shown)
VH: EVQLVQSGAEVKKPGATVKISCKASGFNIKDDYMNWVQQRPGKGLEWIGWIDPENGDTEYASKFQGRATMTADTSTNTAYMELSSLRSEDTAVYYCTTSNGWGQGTLVTVSS
VL: DIQMTQSPFSLPVTPGESASISCRSSKSLGHSNGITYLYWYGQKPGQSPQLLIYQGSNRASGVPNRFSSSGSGTDFTLKISRVEAEDVGVYYCAQNLELPLTFGQGTKLEIK
B10: hu9F5VHv9/hu9F5VLv8_DIM9 (antibody, V domains shown)
VH: EVQLVQSGAEVKKPGATVKISCKASGFNIKDDYMNWVQQRPGKGLEWIGWIDPENGDTEYASKFQGRATMTADTSTNTAYMELSSLRSEDTAVYYCTTSNGWGQGTLVTVSS
VL: DIQMTQSPFSLPVTPGESASISCRSSKSLGHSNGITYLYWYQQKPGQSPQLLIYQKSNGASGVPNRFSSSGSGTDFTLKISRVEAEDVGVYYCAQNIELPLTFGQGTKLEIK
B11: hu9F5VHv9/hu9F5VLv8_DIM16 (antibody, V domains shown)
VH: EVQLVQSGAEVKKPGATVKISCKASGFNIKDDYMNWVQQRPGKGLEWIGWIDPENGDTEYASKFQGRATMTADTSTNTAYMELSSLRSEDTAVYYCTTSNGWGQGTLVTVSS
VL: DIQMTQSPFSLPVTPGESASISCRSSKSLGHSNGITYLYWYGQKPGQSPQLLIYQGSNTASGVPNRFSSSGSGTDFTLKISRVEAEDVGVYYCAQNLELPLTFGQGTKLEIK
B12: hu9F5VHv9/hu9F5VLv8_DIM4 (antibody, V domains shown)
VH: EVQLVQSGAEVKKPGATVKISCKASGFNIKDDYMNWVQQRPGKGLEWIGWIDPENGDTEYASKFQGRATMTADTSTNTAYMELSSLRSEDTAVYYCTTSNGWGQGTLVTVSS
VL: DIQMTQSPFSLPVTPGESASISCRSSKSLSHSNGITYLYWYQQKPGQSPQLLIYQGSNRASGVPNRFSSSGSGTDFTLKISRVEAEDVGVYYCAQNGELPLTFGQGTKLEIK
B13: hu9F5VHv9/hu9F5VLv8_DIM12 (antibody, V domains shown)
VH: EVQLVQSGAEVKKPGATVKISCKASGFNIKDDYMNWVQQRPGKGLEWIGWIDPENGDTEYASKFQGRATMTADTSTNTAYMELSSLRSEDTAVYYCTTSNGWGQGTLVTVSS
VL: DIQMTQSPFSLPVTPGESASISCRSSKSLGHSNGITYLYWYGQKPGQSPQLLIYQGSNRASGVPNRFSSSGSGTDFTLKISRVEAEDVGVYYCAQNGELPLTFGQGTKLEIK
B14: hu9F5VHv9/hu9F5VLv8_DIM17 (antibody, V domains shown)
VH: EVQLVQSGAEVKKPGATVKISCKASGFNIKDDYMNWVQQRPGKGLEWIGWIDPENGDTEYASKFQGRATMTADTSTNTAYMELSSLRSEDTAVYYCTTSNGWGQGTLVTVSS
VL: DIQMTQSPFSLPVTPGESASISCRSSKSLSHSNGITYLYWYGQKPGQSPQLLIYQGSNTASGVPNRFSSSGSGTDFTLKISRVEAEDVGVYYCAQNIELPLTFGQGTKLEIK
B15: hu9F5VHv9/hu9F5VLv8_DIM7 (antibody, V domains shown)
VH: EVQLVQSGAEVKKPGATVKISCKASGFNIKDDYMNWVQQRPGKGLEWIGWIDPENGDTEYASKFQGRATMTADTSTNTAYMELSSLRSEDTAVYYCTTSNGWGQGTLVTVSS
VL: DIQMTQSPFSLPVTPGESASISCRSSKSLDHSNGITYLYWYQQKPGQSPQLLIYQKSNRASGVPNRFSSSGSGTDFTLKISRVEAEDVGVYYCAQNIELPLTFGQGTKLEIK
B16: hu9F5VHv9/hu9F5VLv8_DIM8 (antibody, V domains shown)
VH: EVQLVQSGAEVKKPGATVKISCKASGFNIKDDYMNWVQQRPGKGLEWIGWIDPENGDTEYASKFQGRATMTADTSTNTAYMELSSLRSEDTAVYYCTTSNGWGQGTLVTVSS
VL: DIQMTQSPFSLPVTPGESASISCRSSKSLGHSNGITYLYWYQQKPGQSPQLLIYQKSNRASGVPNRFSSSGSGTDFTLKISRVEAEDVGVYYCAQNIELPLTFGQGTKLEIK
B17: hu9F5VHv9/hu9F5VLv8_DIM6 (antibody, V domains shown)
VH: EVQLVQSGAEVKKPGATVKISCKASGFNIKDDYMNWVQQRPGKGLEWIGWIDPENGDTEYASKFQGRATMTADTSTNTAYMELSSLRSEDTAVYYCTTSNGWGQGTLVTVSS
VL: DIQMTQSPFSLPVTPGESASISCRSSKSLDHSNGITYLYWYQQKPGQSPQLLIYQGSNRASGVPNRFSSSGSGTDFTLKISRVEAEDVGVYYCAQNIELPLTFGQGTKLEIK
B18: hu9F5VHv9/hu9F5VLv8_DIM1 (antibody, V domains shown)
VH: EVQLVQSGAEVKKPGATVKISCKASGFNIKDDYMNWVQQRPGKGLEWIGWIDPENGDTEYASKFQGRATMTADTSTNTAYMELSSLRSEDTAVYYCTTSNGWGQGTLVTVSS
VL: DIQMTQSPFSLPVTPGESASISCRSSKSLSHSNGITYLYWYQQKPGQSPQLLIYQGSNGASGVPNRFSSSGSGTDFTLKISRVEAEDVGVYYCAQNIELPLTFGQGTKLEIK

The target of the assay is T1, recombinant human 4R0N tau (human, UniProt P10636 2-758).
T1 construct: also called recombinant 4R0N human tau; P10636-6
T1 sequence (P10636 other isoform, or with tags, fused parts or gaps limits assumed): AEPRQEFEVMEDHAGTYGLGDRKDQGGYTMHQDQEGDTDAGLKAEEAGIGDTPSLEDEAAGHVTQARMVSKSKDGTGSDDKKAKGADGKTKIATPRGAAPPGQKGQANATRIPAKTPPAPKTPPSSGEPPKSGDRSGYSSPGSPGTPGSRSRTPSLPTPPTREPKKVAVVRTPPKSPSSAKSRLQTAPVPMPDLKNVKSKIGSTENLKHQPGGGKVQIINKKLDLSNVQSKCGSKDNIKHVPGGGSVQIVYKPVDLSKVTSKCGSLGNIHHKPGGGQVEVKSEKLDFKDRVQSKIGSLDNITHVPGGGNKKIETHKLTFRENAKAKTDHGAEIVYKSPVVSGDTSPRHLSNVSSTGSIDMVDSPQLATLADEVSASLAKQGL
Briefly: SPR Biacore T200; antibody captured by anti-human Fc; tau as analyte; global 1:1 fit. The procedure: Target binding analysis was performed using a Biacore T200 to compare the binding affinity of humanized 9F5 variants to recombinant human 4R0N tau. Anti-Human Fc antibody was immobilized on sensor chip CM3 via amine coupling, and humanized 9F5 variants were captured to equivalent levels. Various concentrations of recombinant 4R0N human tau (ranging from 0.02 nM to 12.5 nM) were passed over the captured ligand at 50 μL/min in running buffer (HBS+0.05% P-20, 1 mg/mL BSA) for 180 seconds association/420 seconds dissociation as a single cycle. Data was blank subtracted to both an irrelevant sensor not containing antibody and 0 nM analyte concentration. Analysis was performed using a global 1:1 fit with Biacore Evaluation software.
(In general: In SPR one partner is held on a chip, and binding of the other changes the refractive index at the surface.)
For the molecule B1, the dissociation constant Kd (in general, the concentration at which binding is half-saturated) was 269 pM; the koff – broadly, a measure of how fast the partners let go of each other – was determined as 0.000429 s⁻¹; the kon (in general, the rate constant with which the complex forms) amounted to 1.72e+06 M⁻¹ s⁻¹.

For B2, the Kd turned out to be 299 pM, the koff was 0.000586 s⁻¹ and the kon came out at 1.96e+06 M⁻¹ s⁻¹.

Take B3: the Kd stood at 873 pM, the koff was 0.000732 s⁻¹ and the kon was 839000 M⁻¹ s⁻¹.

As for B4, the equilibrium dissociation constant (Kd) was found to be 3920 pM, the koff worked out at 0.0741 s⁻¹ and the kon came to 1.89e+07 M⁻¹ s⁻¹.

B5: the dissociation constant Kd was 77.2 pM, the koff worked out at 0.00011 s⁻¹ and the kon amounted to 1.42e+06 M⁻¹ s⁻¹.

For B6, the Kd was 600 pM, the koff is 0.00068 s⁻¹ and the kon came out at 1.13e+06 M⁻¹ s⁻¹.

Turning to B7, the Kd was 169 pM, the koff was found to be 0.000295 s⁻¹ and the kon worked out at 1.75e+06 M⁻¹ s⁻¹.

On to B8, for which the Kd is 142 pM, the koff stood at 0.000188 s⁻¹ and the kon is 1.33e+06 M⁻¹ s⁻¹.

For the molecule B9, the Kd is 266 pM, the koff is 0.000439 s⁻¹ and the kon came out at 1.65e+06 M⁻¹ s⁻¹.

In the case of B10, the Kd stood at 5070 pM, the koff worked out at 0.0116 s⁻¹ and the kon turned out to be 2.29e+06 M⁻¹ s⁻¹.

For the molecule B11, the Kd is 355 pM, the koff turned out to be 0.000808 s⁻¹ and the kon stood at 2.27e+06 M⁻¹ s⁻¹.

In the case of B12, the equilibrium dissociation constant (Kd) stood at 2630 pM, the koff was found to be 0.00143 s⁻¹ and the kon stood at 542000 M⁻¹ s⁻¹.

As for B13, the Kd turned out to be 221 pM, the koff is 0.000429 s⁻¹ and the kon is 1.94e+06 M⁻¹ s⁻¹.

Turning to B14, the Kd was 128 pM, the koff stood at 0.000326 s⁻¹ and the association rate constant (kon) is 2.54e+06 M⁻¹ s⁻¹.

Turning to B15, the Kd came to 180 pM, the off-rate (koff) was 0.000424 s⁻¹ and the kon turned out to be 2.36e+06 M⁻¹ s⁻¹.

Regarding B16, the Kd was determined as 435 pM, the dissociation rate constant (koff) is 0.000576 s⁻¹ and the kon turned out to be 1.32e+06 M⁻¹ s⁻¹.

For B17, the dissociation constant Kd worked out at 178 pM, the koff came out at 0.000272 s⁻¹ and the kon was found to be 1.53e+06 M⁻¹ s⁻¹.

Take B18: the Kd was determined as 844 pM, the koff was 0.00559 s⁻¹ and the kon stood at 6.62e+06 M⁻¹ s⁻¹.
